± gives the uncertainty stated by the source.
Test: amyloid nucleation score (Sup35N fusion, yeast selection) (log enrichment); library NNK2; higher = more nucleation; inactive = no reads after selection
Outline: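 For the nucleation score, DiMSum gave the log enrichment of output over input reads, centred on the mode score of non-aggregating sequences. Psi-negative yeast expressing Sup35N fused to peptides of 20 random codons were induced with 100 μM copper sulfate for 24 hours and grown 7 days at 30°C on medium lacking adenine and uracil. Input and output plasmid inserts were Illumina-sequenced, and sequences with under 100 input reads were excluded.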

| Substance | amyloid nucleation score |
| --- | --- |
| RAGFSSAPLVEGRSLTQRCR | inactive |
| RCELSRRGTSLRTWRWARNG | 1.46 ± 0.17 |
| RCFIHRGGLLVVLV | -0.98 ± 0.54 |
| RCFNLWSNSVLFNCSVCSAE | 7.414 ± 0.065 |
| RCGSDLCDTFWVTLRGYGEV | 0.595 ± 0.43 |
| RCKWVRGVSRMPNHWN | 0.779 ± 0.4 |
| RCLPISTIVF | 2.43 ± 0.16 |
| RCLSYFGLKLLRVSRLFIDL | 0.034 ± 0.28 |
| RCRHLLSMPLPVSFEMDGRG | 2.85 ± 0.099 |
| RCRILA | 2.51 ± 0.1 |
| RCSTGRVFSSLDEVLLSRWG | 4.64 ± 0.048 |
| RCVWINVGCSPILIGYAAHY | 8.728 ± 0.03 |
| RCYINFGIHGLWMLHVCFWG | -0.849 ± 1.1 |
| RDRFS | 0.248 ± 0.61 |
| RDSFRDTAYHELVYFTKNFR | inactive |
| RECFLNPWSVYVRFS | -0.086 ± 0.44 |
| REDNPRADTCMAYGV | 1.14 ± 0.35 |
| REGYNAIMYDV | -1.27 ± 0.62 |
| RELCVFASCAFVGLLVESWK | 6.16 ± 0.078 |
| REVYWLMCTA | 0.747 ± 0.47 |
| REWEVCGDCLVGNNGWFRWV | 0.409 ± 0.47 |
| RFAMFMVVRWGWDHKYEFLR | 0.353 ± 0.33 |

| Substance | amyloid nucleation score |
| --- | --- |
| RFCSMSLSWNYDSC | 5.5 ± 0.079 |
| RFDPNTAWNLTFSSSRCVAG | 0.91 ± 0.27 |
| RFEMRSGLKDKLDKVGS | inactive |
| RFFCYKSYMLLECLRIVSVC | -0.853 ± 0.78 |
| RFKSNNRPCWHCHPLLGFRT | 1.06 ± 0.43 |
| RFNTCLDS | -0.005 ± 0.29 |
| RFQELMTK | 0.626 ± 0.8 |
| RFRHNKWYCLLRLAG | 0.956 ± 0.33 |
| RFTFFAGAS | 0.367 ± 0.21 |
| RFVKSRRATILSNDG | -0.198 ± 0.39 |
| RFWDQACQAFMSSMVEGPVD | -0.548 ± 1.1 |
| RFWPWLLVRPNFPMLSQ | 0.216 ± 0.37 |
| RFWSMETEHDIIALVFASSV | 0.096 ± 0.49 |
| RFYVGTIFSPYILLSSTECM | 3.82 ± 0.06 |
| RGDHLGCSII | -0.101 ± 0.79 |
| RGDRSWGVRSCSRYDAAIAG | 1.71 ± 0.38 |
| RGFRIVLINRCVILRSV | 0.198 ± 0.26 |
| RGLRDLMCLRPLRLASSQPP | inactive |
| RGMVE | 0.587 ± 0.53 |
| RGRAFGPEIRNKSLGLTYPV | 0.282 ± 0.21 |
| RGRCNVVSSLTFTIRSLWTV | 1.59 ± 0.13 |
| RGSNVGMRDLAYRPHSGQMW | 1.68 ± 0.56 |

| Substance | amyloid nucleation score |
| --- | --- |
| RGSYMVPWHVERIIGNSRVS | -0.899 ± 0.23 |
| RGVLVEFYGAMENISWSTYW | -0.497 ± 0.76 |
| RGVVWRR | 0.23 ± 0.63 |
| RGWCFWASPGRR | 0.2 ± 0.26 |
| RGWRAGMYFACF | 0.656 ± 0.42 |
| RHDLWAPRTERMMVYMCTAA | 0.544 ± 0.26 |
| RHGVVLSNVSKSVVSVPGAK | -0.409 ± 0.76 |
| RHHGVRIYMRNFGNVYVYIR | 3.85 ± 0.11 |
| RHICIFMNRMSYMDLWPALL | inactive |
| RHKMWVFRT | inactive |
| RHMSTVKTLSEGLNLESGLI | -0.519 ± 0.74 |
| RHRRHLNHYAPTSSMIWTYS | 0.258 ± 0.65 |
| RHTFLVSAGYKERMVGMTSG | -1.12 ± 0.63 |
| RIDRFLFASGHEGYAVN | 4.507 ± 0.033 |
| RIENFVWC | -0.688 ± 0.63 |
| RIGSGTGRPWN | -1.02 ± 0.39 |
| RIGTFWRGQDKLDVFKYGVV | -0.236 ± 0.37 |
| RIGVSSFVEEHSRIGLGRAP | 5.57 ± 0.066 |
| RIHYYVVLCLGSRRSTFGLR | -0.171 ± 0.28 |
| RIKYG | 4.05 ± 0.065 |
| RIRSCTLMWT | 0.807 ± 0.22 |
| RITFV | -0.64 ± 0.76 |

| Substance | amyloid nucleation score |
| --- | --- |
| RITIAQHTDSKGDA | -0.01 ± 0.61 |
| RIVFHYVCTVLR | -0.964 ± 0.76 |
| RIYGILVSFYCIVYDGFSGG | 1.9 ± 0.082 |
| RKAFIHVDKRLDSSIGTRSG | 0.321 ± 0.41 |
| RKCSSVLRGHTVQDVHFFSA | -0.056 ± 0.56 |
| RKGCWSL | 1.65 ± 0.34 |
| RKRRLMYLSGDNTQPFARLY | -0.686 ± 1.1 |
| RKSVWYCDIFIIEYPDFSYS | 2.07 ± 0.1 |
| RKVSSARNSVIATSMSNNSV | -1.61 ± 0.54 |
| RKVVRLSHFLMCDCSRKPRR | -0.072 ± 0.76 |
| RKYNGCSFQHYGLSVRTRSL | 2.37 ± 0.2 |
| RLCTVRSP | 1.55 ± 0.14 |
| RLDGSG | 0.587 ± 0.2 |
| RLDSMMVAYNAT | 0.724 ± 0.81 |
| RLGEWGFNRLVWFNKEAVCS | 0.495 ± 0.47 |
| RLGPSSWSWHL | 1.52 ± 0.29 |
| RLKVIFRSLFHLLRAVRGSH | -1.36 ± 0.75 |
| RLLAVPLVRFRC | -0.23 ± 0.79 |
| RLLRLDQKQIMVRSSSAVLR | -0.107 ± 0.32 |
| RLLSGCLFGGSRA | -0.623 ± 0.76 |
| RLMDGYSSV | 0.548 ± 0.29 |

Reference: the supplement of paper PMC12042874
